Data: patent US20240262879

What was measured:
[1] = test system: Peptide 10
[2] = test system: Peptide 8
[3] = test system: Control (peptide of Table 12)
[4] = test system: Peptide 5 (GPLGVRG)
[5] = test system: BI-052
[6] = test system: BI-051
[7] = test system: BI-055
[8] = test system: BI-059
[9] = test system: BI-050
[10] = test system: BI-054
Chain of BI-054 (chain, as listed by the source, chain 1 of 2): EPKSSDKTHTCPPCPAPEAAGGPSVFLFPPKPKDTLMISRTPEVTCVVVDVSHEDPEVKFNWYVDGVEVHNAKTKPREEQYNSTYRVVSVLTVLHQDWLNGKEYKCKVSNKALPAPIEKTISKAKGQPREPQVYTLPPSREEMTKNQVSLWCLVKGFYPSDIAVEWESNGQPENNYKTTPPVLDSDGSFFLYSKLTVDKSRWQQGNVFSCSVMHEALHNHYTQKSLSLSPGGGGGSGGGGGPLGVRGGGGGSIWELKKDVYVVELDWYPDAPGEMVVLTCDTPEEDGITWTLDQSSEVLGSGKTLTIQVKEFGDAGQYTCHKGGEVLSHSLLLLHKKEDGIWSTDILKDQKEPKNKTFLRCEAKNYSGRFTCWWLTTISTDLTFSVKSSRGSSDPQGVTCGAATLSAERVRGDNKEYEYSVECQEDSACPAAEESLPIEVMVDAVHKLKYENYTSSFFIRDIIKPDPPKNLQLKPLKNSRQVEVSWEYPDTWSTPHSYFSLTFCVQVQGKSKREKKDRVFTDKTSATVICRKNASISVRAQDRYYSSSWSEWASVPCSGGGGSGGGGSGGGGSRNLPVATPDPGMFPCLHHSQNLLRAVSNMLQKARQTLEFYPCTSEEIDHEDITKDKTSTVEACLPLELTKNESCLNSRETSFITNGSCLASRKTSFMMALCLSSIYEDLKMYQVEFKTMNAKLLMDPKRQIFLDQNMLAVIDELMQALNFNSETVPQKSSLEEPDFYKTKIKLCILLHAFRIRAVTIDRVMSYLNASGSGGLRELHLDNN
Chain of BI-054 (chain, as listed by the source, chain 2 of 2): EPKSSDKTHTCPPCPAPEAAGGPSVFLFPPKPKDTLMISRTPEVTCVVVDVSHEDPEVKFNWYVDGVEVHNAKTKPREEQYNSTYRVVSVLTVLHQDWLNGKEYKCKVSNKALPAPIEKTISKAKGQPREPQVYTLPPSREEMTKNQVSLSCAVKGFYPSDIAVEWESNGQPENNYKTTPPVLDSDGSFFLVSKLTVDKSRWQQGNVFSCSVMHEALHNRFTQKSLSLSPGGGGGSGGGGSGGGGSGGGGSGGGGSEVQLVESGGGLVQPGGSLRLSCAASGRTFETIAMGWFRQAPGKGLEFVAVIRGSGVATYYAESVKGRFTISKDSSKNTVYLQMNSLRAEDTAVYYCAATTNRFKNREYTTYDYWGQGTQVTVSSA

Chain of rhMMP3 (chain, as listed by the source): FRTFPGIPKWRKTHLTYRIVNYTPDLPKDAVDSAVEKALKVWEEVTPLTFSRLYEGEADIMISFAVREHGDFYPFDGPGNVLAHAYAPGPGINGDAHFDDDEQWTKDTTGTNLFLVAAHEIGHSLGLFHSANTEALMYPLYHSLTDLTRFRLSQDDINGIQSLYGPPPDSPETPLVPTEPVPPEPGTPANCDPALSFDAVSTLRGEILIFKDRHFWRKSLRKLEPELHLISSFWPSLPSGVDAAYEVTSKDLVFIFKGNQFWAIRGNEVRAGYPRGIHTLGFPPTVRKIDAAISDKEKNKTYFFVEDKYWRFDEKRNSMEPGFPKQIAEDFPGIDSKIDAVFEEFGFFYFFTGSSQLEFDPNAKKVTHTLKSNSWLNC
Chain of rhMMP9 (chain, as listed by the source): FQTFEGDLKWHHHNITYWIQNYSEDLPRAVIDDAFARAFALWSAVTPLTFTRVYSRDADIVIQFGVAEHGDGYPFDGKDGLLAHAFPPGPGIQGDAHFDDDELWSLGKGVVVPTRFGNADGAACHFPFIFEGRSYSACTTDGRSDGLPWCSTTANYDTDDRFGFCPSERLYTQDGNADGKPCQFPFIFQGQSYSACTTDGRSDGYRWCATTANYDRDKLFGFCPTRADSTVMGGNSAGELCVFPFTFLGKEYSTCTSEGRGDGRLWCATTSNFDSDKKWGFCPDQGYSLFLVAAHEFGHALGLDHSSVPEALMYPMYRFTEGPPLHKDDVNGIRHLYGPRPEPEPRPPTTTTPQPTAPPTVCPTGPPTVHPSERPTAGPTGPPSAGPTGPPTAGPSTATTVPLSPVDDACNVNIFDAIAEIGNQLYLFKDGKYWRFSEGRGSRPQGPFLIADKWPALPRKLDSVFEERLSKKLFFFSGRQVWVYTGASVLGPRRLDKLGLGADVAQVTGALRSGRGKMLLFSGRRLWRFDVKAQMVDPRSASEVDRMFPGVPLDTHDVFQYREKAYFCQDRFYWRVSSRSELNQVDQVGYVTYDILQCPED
Chain of rmMMP2 (chain, as listed by the source): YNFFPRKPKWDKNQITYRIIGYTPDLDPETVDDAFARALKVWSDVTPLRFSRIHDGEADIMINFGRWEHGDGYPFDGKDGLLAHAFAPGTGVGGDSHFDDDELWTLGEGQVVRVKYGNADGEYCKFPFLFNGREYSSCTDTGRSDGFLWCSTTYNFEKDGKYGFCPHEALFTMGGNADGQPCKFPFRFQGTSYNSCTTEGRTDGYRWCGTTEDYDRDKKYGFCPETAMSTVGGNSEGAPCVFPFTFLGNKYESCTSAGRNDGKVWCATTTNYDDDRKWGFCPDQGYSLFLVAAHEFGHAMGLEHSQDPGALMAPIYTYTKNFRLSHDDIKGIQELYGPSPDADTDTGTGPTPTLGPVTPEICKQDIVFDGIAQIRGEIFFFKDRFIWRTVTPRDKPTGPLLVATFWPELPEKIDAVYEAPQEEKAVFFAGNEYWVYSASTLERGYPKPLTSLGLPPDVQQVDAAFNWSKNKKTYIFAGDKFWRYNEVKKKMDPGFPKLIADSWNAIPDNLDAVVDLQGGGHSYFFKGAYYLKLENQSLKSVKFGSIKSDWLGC
Chain of BI-059 (chain, as listed by the source, chain 1 of 2): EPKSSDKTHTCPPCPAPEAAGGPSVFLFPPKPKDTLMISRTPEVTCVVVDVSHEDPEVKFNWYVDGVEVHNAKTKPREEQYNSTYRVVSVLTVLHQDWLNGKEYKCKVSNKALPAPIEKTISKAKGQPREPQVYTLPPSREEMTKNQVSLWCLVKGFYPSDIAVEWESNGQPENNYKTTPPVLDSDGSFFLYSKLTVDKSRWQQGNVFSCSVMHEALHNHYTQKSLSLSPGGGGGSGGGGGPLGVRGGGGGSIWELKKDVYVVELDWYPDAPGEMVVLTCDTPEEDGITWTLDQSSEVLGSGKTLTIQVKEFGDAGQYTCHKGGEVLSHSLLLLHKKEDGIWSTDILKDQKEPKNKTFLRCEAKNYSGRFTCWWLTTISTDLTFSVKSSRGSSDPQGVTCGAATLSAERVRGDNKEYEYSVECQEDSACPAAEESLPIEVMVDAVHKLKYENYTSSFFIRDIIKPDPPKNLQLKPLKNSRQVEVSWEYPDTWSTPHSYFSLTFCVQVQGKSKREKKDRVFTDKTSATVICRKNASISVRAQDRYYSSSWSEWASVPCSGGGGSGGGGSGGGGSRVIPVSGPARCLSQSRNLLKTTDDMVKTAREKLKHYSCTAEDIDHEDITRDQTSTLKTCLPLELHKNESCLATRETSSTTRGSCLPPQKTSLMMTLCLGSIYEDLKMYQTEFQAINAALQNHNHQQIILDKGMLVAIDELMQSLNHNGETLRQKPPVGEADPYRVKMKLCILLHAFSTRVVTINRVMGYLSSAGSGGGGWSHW
Chain of BI-059 (chain, as listed by the source, chain 2 of 2): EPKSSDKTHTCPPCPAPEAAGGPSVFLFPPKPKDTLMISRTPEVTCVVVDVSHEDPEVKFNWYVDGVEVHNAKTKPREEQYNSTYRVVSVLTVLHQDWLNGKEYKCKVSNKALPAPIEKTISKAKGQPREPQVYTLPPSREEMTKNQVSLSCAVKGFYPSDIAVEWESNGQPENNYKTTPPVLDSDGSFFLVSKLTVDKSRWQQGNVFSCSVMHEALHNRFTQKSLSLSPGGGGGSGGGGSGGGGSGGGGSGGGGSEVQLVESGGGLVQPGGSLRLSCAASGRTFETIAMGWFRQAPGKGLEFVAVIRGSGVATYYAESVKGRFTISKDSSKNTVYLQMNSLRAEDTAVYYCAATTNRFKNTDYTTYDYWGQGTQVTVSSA
Chain of BI-050 (chain, as listed by the source, chain 1 of 2): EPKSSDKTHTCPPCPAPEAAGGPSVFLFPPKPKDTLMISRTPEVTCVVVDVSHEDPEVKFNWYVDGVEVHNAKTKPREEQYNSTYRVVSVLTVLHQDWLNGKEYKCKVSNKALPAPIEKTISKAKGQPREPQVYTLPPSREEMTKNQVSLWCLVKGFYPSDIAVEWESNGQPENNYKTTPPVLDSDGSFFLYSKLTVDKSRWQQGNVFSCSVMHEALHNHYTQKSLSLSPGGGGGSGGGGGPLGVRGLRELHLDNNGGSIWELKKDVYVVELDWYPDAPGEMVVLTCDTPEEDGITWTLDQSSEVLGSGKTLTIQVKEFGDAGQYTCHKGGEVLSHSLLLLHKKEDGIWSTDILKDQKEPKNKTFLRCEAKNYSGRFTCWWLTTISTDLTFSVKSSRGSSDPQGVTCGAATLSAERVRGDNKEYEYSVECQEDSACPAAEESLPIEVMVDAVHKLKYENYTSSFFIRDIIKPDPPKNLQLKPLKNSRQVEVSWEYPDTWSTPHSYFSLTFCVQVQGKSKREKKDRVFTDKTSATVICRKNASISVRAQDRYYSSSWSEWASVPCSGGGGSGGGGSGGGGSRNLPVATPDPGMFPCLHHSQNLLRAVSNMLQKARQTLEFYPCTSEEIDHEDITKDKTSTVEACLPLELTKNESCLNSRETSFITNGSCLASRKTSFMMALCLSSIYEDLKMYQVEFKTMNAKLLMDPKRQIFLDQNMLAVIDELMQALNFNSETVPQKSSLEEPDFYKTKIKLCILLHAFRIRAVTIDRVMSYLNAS

Row | Substance | Specific Activity [1] | Specific Activity [2] | Specific Activity [3] | Specific Activity [4] | cleavage shown by SDS-PAGE [5] | cleavage shown by SDS-PAGE [6] | cleavage shown by SDS-PAGE [7] | cleavage by Western blot [8] | cleavage shown by SDS-PAGE [9] | cleavage shown by SDS-PAGE [10]
1 | rhMMP3 | 18.3 pmol/min/µg | 51.2 pmol/min/µg | 10 pmol/min/µg | 14.2 pmol/min/µg | – | – | – | – | – | –
2 | rhMMP9 | 63.6 pmol/min/µg | 123 pmol/min/µg | 10 pmol/min/µg | 200 pmol/min/µg | efficiently cleaved | efficiently cleaved | efficiently cleaved | efficiently cleaved with the human tumor lysates to the level comparable to activated MMP9 | efficiently cleaved | efficiently cleaved
3 | rmMMP2 | 98.9 pmol/min/µg | 233 pmol/min/µg | 10 pmol/min/µg | 165 pmol/min/µg | – | – | – | – | – | –
